According to patent US20240093310A1 (Dana-Farber, published 2024):

Key:
[1] = biological target: T1, C-RAF S257P resistance mutant (human, UniProt P04049 1-648); test: C-RAF immunoprecipitation, 14-3-3ζ immunoblot, 293T and A375 cells, no RAF inhibitor (FIG. 7A, 7B)
T1 construct: His/V5- or Flag-tagged in the homodimerization assays

[2] = biological target: T2, C-RAF G361A resistance mutant (human, UniProt P04049 1-648); test: as above
T2 construct: His/V5- or Flag-tagged in the homodimerization assays; also called 361G>A

[3] = biological target: T3, C-RAF P261T resistance mutant (human, UniProt P04049 1-648); test: as above
T3 construct: His/V5- or Flag-tagged in the homodimerization assays

wild-type human C-RAF = biological target: T4, wild-type human C-RAF (human, UniProt P04049 1-648); test: C-RAF immunoprecipitation, 14-3-3ζ immunoblot, A375 cells with and without 2 µM vemurafenib (FIG. 7B)
T4 construct: In the homodimerization assays the copies carried a His/V5 tag or a Flag tag; also called WT-C-RAF; C-RAF (WT)

binding result [1]: binds | binding result [2]: binds | binding result [3]: binds | binding result (wild-type human C-RAF): binds
B1: 14-3-3 ζ (other, UniProt P63104 1-245, looked up)
chain: MDKNELVQKAKLAEQAERYDDMAACMKSVTEQGAELSNEERNLLSVAYKNVVGARRSSWRVVSSIEQKTEGAEKKQQMAREYREKIETELRDICNDVLSLLEKFLIPNASQAESKVFYLKMKGDYYRYLAEVAAGDDKKGIVDQSQQAYQEAFEISKKEMQPTHPIRLGLALNFSVFYYEILNSPEKACSLAKTAFDEAIAELDTLSEESYKDSTLIMQLLRDNLTLWTSDTQGDEAEAGEGGEN
notes: The Western blot methods list a 14-3-3ζ antibody (Cell Signaling)
